This is an account of results in patent publication US11401512.

Experiment in all cases: cell_activity
Data set [1] has as its system 71557 ZFN (left, albumin) F1 m5Q, F3 m5Q; FokI N542D (synthetic).
For data set [2], the system named is SBS47171-FLAG ZFN (left, albumin) (synthetic).
Data set [3] relates to 71728 ZFN (right, albumin) F3 m5Q; FokI P478S (synthetic).
Data set [4] has as its system 47898-FLAG ZFN (right, albumin) (synthetic).
[5] abbreviates: off-target, pair 71557/71728, AAV 600K MOI.
Where [6] appears, read: off-target, pair 47171/47898, AAV 600K MOI.

Regarding “TTTGGGATAGTTATGAATTCAATCTTCA (double strand) [albumin left ZFN half-site (A/T allele)]”, the activity in data set [1] (with 71728, primary human hepatocytes, AAV 600K MOI, day 10) stood at 44.2 % indels; in data set [2] (with 47898, primary human hepatocytes, AAV 600K MOI, day 10), 25.4 % indels.

With SMCHD1 off-target site, the activity in data set [1] (setting [5]) was 0.34 % indels; in data set [2] (setting [6]) it was 0.36 % indels; in data set [3] (setting [5]) it was 0.34 % indels; in data set [4] (setting [6]), 0.36 % indels.

For the substance “CCTATCCATTGCACTATGCTTTATTTAA (double strand) [albumin right ZFN half-site]”, the activity in data set [3] (with 71557, primary human hepatocytes, AAV 600K MOI, day 10) turned out to be 44.2 % indels; in data set [4] (with 47171, primary human hepatocytes, AAV 600K MOI, day 10) it was 25.4 % indels.
